Assays:
[1] = target: GST-Ubx NES-mutated (Drosophila); test: pull-down
[2] = target: VC-Ubx^NES (NES-mutated full length Ubx fused to the C-terminal fragment of Venus) (Drosophila); test: split reporter

Substance | percent loss of pulled-down Emb against wild type GST-Ubx [1] [%] | percent decrease of BiFC fluorescence in the nucleus against wild type Ubx [2] [%]
VC-Emb, in S2R+ cell extract (from UniProt Q9TVM2 1-1063) (natural protein) | 30 | –
VN-Emb (Embargoed fused to the N-terminal fragment of Venus) (from UniProt Q9TVM2 1-1063) (natural protein) | – | 40

— doi:10.1101/843383
